Literature values, collected in article PMC3113340.

Biological target: IL-1ra (Homo sapiens) (UniProt P18510)
Chain of UniProt P18510 (P18510 26-177): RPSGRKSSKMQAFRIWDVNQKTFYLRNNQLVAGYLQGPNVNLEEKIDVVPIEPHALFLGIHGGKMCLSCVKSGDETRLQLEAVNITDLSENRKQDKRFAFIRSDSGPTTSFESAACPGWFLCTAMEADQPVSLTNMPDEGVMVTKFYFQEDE

Substance: soluble IL-1RI ECD (from UniProt P14778)
- Kd: 0.014 nM
